In one series the test system is miR-128-2−/− mice. Kind of series: Survival of miR-128-2-/- mice under anticonvulsant treatment (Kaplan-Meier survival curves). The format is in vivo. As to conditions: sodium valproate 0.26% w/v in drinking water, oral, n=11.
Series [1] deals with Dravet-syndrome mice (Scn1a or Gabrg2 deficient mice). The experiment in a line: Ectopic miR-128 overexpression in Dravet-syndrome mouse models (Scn1a or Gabrg2 deficient mice). The format is in vivo. As to conditions: supplied into neurons of the hippocampus or thalamus; Dravet-like syndrome mice. The text has this: The inventors of the instant disclosure ectopically overexpress miR-128 in mouse models of severe human generalized childhood epilepsy such as the Dravet-syndrome (Scn1a or Gabrg2 deficient mice) to establish the efficacy of miR-128 in averting seizures in these mice. Mice with a loss of Scna1 and Gabrg2 display spontaneous seizures and ataxia beginning in the fourth postnatal week followed by premature death from seizure-related cause. Applicants test the effects of miR-128 overexpression on seizure development and survival in three to four week old Dravet-syndrome mice. The ability of genetic miR-128 overexpression in postnatal forebrain neurons to protect mice against spontaneous seizure development is also tested. Secondly, Applicants test the seizure-suppressing ability of oligonucleotide or AAV-based miR-128 overexpression in different brain regions (striatum, temporal cortex, hippocampus, mediodorsal thalamus) to determine whether there are specific locations that can short-circuit brain-wide seizures due to local miR-128 overexpression. Ectopically supplied miR-128 into the neurons of the hippocam pus or thalamus protects mice suffering from Dravet-like syndrome against spontaneous recurrent seizures and premature death.

In series [2] the test system is primary striatal neuron cultures. Kind of series: Gene expression (TaqMan qRT-PCR) in BDNF-treated primary striatal neuron cultures. The format is cell-based, mouse. As to conditions: 0.05 ng/ul BDNF, day 10 in vitro; 0, 2, 6 and 24 hours. The procedure:
Primary striatal neuron cultures obtained from E18 mouse brain were treated on day 10 in vitro with 0.05 ng/ul brain-derived neurotrophic factor (BDNF) in water. RNA from cultures was prepared at 0, 2, 6 and 24 hours after stimulation and gene expression change were analyzed using the Tagman qRT-PCR assay. […] Data are shown as mean, error bars represent s.e.m., p-value was determined by 2-way ANOVA, FosB treatment 0.0014, time <0.0001. 124a treatment 0.1091, time 0.0861, Arpp21 treatment 0.0064, time 0.0190. miR-128-2 treatment 0.0160, time 0.2097.
Relative expression levels of mature miRNAs and mRNAs were measured by TaqMan assays using total extracted RNA from brain samples, according to manufacturer's protocol (Life Technologies, Carlsbad, Calif.). Purified RNA samples were assayed by qRT-PCR for relative gene expression using pre-designed TaqMan gene expression assays from Applied Biosystems (ABI) as recommended by the manufacture. The following pre-designed TaqMan gene expression assays from Applied Biosystems (ABI) were used: miR-128 (Assay ID 002216), sno135 (Assay ID 001230), miR-124a (Assay ID 001182), Fosb Mm00500401_m1, Fosl2 Mm00484442_m1, Arc Mm00479619_g1, JunB Mm04243546_s1, Darpp-32 Mm00454892_m1, Btg2 Mm00476162_m1, Gadd45g Mm01352550_g1, Dusp1 Mm00457274_g1, Nr4a1 Mm01300401_m1, Jun Mm00495062_s1, Actb Mm00607939_s1, Arpp-21 Mm00473630_m1 (exon spanning probe detects exons that are common to all Arpp-21 isoforms), Arpp21 Mm00473645_m1 (exon spanning probe that specifically detects the long TARPP-isoform of Arpp-21). Cycle counts for miRNA quantification were normalized to snoRNA135 or miR-124a as indicated, and cycle counts for mRNA quantification were normalized to Actb or Gapdh. […] Calculation of standard deviation (SDΔCt=(SDtarget2+SDref2)1/2) and error bars (RQ1=2^(−(ΔΔCt+SDΔΔCt)), and RQ2=2^(−(ΔΔCt−SDΔΔCt))) was performed according to ABI technical literature Part Number 4371095 Rev B.
In general terms: In qPCR the cycle at which signal appears reflects the starting amount.

Consider `CCCC(CCC)C(=O)O` [valproic acid], for which, in the series on miR-128-2−/− mice, the “lethal impact of miR-128 deficiency (lifespan)” value was “prevented”.

In the case of “miR-128: microRNA, UCACAGUGAACCGGUCUCUUU (SEQ ID NO: 1) (listed as RNA, chemistry not fully specified)”, the “spontaneous recurrent seizures and premature death” value in series [1] is recorded as “protects”.

B1: BDNF: brain-derived neurotrophic factor, inducer of miR-128 expression (protein, UniProt P23560 19-247, looked up)
Neurotrophic factor BDNF …: APMKEANIRGQGGLAYPGVRTHGTLESVNGPKAGSRGLTSLADTFEHVIEELLDEDQKVRPNEENNKDADLYTSRVMLSSQVPLEPPLLFLLEEYKNYLDAANMSMRVRRHSDPARRGELSVCDSISEWVTAADKKTAVDMSGGTVTVLEKVPVSKGQLKQYFYETKCNPMGYTKEGCRGIDKRHWNSQCRTTQSYVRALTMDSKKRIGWRFIRIDTSCVCTLTIKRGR
B1: in series [2], the “expression of immediate early gene FosB” value was “strong but transient inducer”, the “expression of miR-128” value was “stable increase”, the “expression of miR-128 host gene Arpp21” value is listed as “stable increase” and the “expression of neuron-specific miRNA miR-124a” value is on record as “no effect”.

Source of the values: US10087443B2, “Compositions and methods for modulating neuronal excitability and motor behavior” (ICAHN SCHOOL OF MEDICINE AT MOUNT SINAI, priority 2013, dated 2018).
